Reference: patent US8513380B2, “Peptides for binding fibrinogen and fibrin” (Georgia Tech Research Corporation, priority 2009, dated 2013)
Where no end group is shown, it is not given here.

What was measured:
fibrinogen [1] = target: T1, fibrinogen (Homo sapiens, UniProt P02675+P02679); experiment: Turbidity and percent clottability with PEGylated knob peptides; format: biochemical; conditions: 1:1 molar ratio; for percentage of clottable protein: no-peptide ˜95%
T1 sequence (P02679 27-433 limits assumed): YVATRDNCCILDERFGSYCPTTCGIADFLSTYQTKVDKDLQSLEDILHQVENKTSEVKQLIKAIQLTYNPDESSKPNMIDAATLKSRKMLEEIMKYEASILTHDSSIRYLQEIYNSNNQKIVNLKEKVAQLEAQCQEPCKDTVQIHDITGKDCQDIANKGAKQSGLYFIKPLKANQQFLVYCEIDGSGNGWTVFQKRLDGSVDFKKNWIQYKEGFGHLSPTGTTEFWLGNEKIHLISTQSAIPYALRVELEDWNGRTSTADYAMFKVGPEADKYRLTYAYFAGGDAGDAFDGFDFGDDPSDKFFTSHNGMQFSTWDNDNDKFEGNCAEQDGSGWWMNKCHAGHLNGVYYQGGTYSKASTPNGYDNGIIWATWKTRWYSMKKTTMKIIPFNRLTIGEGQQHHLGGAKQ
T1 sequence (P02675 31-491): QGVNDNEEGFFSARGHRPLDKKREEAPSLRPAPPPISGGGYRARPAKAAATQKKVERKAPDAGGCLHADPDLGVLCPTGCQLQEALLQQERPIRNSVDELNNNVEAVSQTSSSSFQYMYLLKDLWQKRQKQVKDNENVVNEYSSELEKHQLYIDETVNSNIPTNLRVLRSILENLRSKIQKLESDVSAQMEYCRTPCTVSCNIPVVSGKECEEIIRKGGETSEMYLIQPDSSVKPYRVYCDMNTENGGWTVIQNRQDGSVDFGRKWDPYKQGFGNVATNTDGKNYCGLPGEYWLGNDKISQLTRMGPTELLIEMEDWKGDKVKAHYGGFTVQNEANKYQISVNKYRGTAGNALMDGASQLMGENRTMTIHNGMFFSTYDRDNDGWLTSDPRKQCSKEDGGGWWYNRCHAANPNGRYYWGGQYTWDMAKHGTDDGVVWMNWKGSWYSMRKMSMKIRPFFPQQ
T1 sequence (P02671 20-629 partner limits assumed): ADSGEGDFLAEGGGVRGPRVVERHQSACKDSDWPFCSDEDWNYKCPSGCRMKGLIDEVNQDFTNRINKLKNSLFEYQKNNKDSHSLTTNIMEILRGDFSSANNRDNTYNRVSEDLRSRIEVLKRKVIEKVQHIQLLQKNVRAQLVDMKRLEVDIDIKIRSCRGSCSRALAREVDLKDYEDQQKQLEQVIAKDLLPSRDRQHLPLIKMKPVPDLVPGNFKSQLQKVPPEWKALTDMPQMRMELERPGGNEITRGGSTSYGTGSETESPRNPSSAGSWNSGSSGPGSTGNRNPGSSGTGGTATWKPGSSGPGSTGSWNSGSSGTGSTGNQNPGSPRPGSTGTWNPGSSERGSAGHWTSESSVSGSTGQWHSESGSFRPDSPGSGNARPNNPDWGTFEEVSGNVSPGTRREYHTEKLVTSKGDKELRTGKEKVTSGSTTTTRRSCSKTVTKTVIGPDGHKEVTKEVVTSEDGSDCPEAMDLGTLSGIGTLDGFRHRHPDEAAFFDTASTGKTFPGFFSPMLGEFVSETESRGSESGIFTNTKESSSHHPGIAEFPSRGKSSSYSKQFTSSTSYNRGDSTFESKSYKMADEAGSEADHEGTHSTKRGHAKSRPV
Protocol: Polymerization rate (turbidity curves), percent clottable protein, fiber structure (SEM), and viscoelastic properties of fibrin polymerized in the presence or absence of PEGylated-GPRPFPAC (5 kDa linear PEG chain, SED ID NO:53) at a 1:1 molar ratio were evaluated.
The turbidity curves upon initiating thrombin-activated polymerization and the amount of soluble protein remaining in the clot liquor after polymerization (percent clottable protein) were evaluated. All assays were performed with 1 mg/ml fibrinogen, 1 U/ml thrombin, 1 U/mL factor XIIIa, and 5 mM CaCl2; all PEG conjugates were tested at a 1:1 molar ratio.

fibrin = fibrin (Homo sapiens, UniProt P02675+P02679); conditions: cited from earlier work
fibrinogen [2] = target: T2, fibrinogen (Homo sapiens, UniProt P02675+P02679); experiment: ELISA specificity assay: soluble Gxxx tetrapeptides competing with immobilized GPRP-FnIII9-10-C; format: binding; conditions: tetrapeptide in 10^2- to 10^4-fold molar excess; one-hour pre-incubation
T2 sequence (P02679 27-437 isoform P02679-2 limits assumed): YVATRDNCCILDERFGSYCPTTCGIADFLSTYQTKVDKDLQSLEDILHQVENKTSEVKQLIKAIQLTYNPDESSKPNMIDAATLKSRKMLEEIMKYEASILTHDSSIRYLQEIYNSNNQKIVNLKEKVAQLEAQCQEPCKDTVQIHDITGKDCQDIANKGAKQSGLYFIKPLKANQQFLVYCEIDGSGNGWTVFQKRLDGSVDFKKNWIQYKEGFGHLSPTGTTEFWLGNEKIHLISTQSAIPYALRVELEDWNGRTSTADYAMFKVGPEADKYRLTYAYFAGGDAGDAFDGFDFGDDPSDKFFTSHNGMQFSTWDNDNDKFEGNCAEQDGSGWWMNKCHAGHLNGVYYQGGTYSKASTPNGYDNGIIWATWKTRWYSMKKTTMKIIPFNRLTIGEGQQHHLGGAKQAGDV
T2 sequence (P02675 31-491): T1 sequence (P02675 31-491)
T2 sequence (P02671 20-629 partner limits assumed): T1 sequence (P02671 20-629 partner limits assumed)
Protocol: A modified ELISA technique was used to establish the affinity of fibrinogen for the various Gxxx-FnIII9-10-C (SEQ ID NO:20) proteins covalently immobilized on maleimide-activated plates via their C-terminal cysteines. Sulfhydryl-containing proteins/peptides were added to pre-blocked maleimide-activated 96-well plates (Pierce, Thermo Scientific, Rockford, Ill.) at 10 μg/mL in conjugation buffer (CB) comprising 150 mM NaCl, 100 mM phosphate, 10 mM EDTA, pH 7.2, with attachment occurring via maleimide-sulfhydryl (thioether) linkages. TCEP (1 mM) was added to maintain sulfhydryl groups in the reduced form. Following, unreacted maleimide groups were quenched with 20 μg/mL cysteine in CB. Human fibrinogen (25 μg/mL) was incubated with the substrates and unbound protein removed by washing. Bound fibrinogen was detected using HRP-conjugated goat anti-fibrinogen antibody (MP Biomedicals #55239) and 1-Step™ Ultra TMB-ELISA (Pierce). The TMB reaction was quenched with 1 M H2SO4 before measuring the Abs450 nm using the SPECTRAMAX® M2 (Molecular Devices, Sunnyvale, Calif.). All intervening wash steps were conducted using washing buffer (WB) comprising 150 mM NaCl, 100 mM phosphate, 0.05% Tween-20, pH 7.2; all binding steps were conducted using binding buffer (BB) comprising PBS+1% BSA. For basic affinity assays, the concentration of the fusion proteins was varied. For specificity assays, varying concentrations of Gxxx (SEQ ID NO:20) tetrapeptides (Genscript, Piscataway, N.J.) were added to the fibrinogen solution during incubation with the covalently immobilized proteins.
The tetrapeptides GPRV (SEQ ID NO:2) and GHRP (SEQ ID NO:3) are also known to bind fibrinogen via knob:pocket interactions, albeit with reduced affinities (Laudano A P, et al. Biochemistry 1980, 19(5):1013-1019).

Substance | percentage of clottable protein (fibrinogen [1]) | excess necessary to completely inhibit fibrin assembly (fibrin) | competition with immobilized GPRP-FnIII9-10-C for binding to fibrinogen (fibrinogen [2]) | maximum absorbance turbidity value (fibrinogen [1]; 1 mg/ml fibrinogen, 1 U/ml thrombin, 1 U/mL factor XIIIa)
GPSPFPAC-PEG: control peptide conjugate, GPSPFPAC (SEQ ID NO:18) with PEG (also: PEG conjugate, site not given here; listed as Homo sapiens) [reference compound] | did not change |  |  | 
GPRP |  | ≥ 100 -fold excess | dose-dependent inhibition of fibrinogen binding | 
GPRPFPAC-PEG: GPRPFPAC conjugated to 5 kDa linear PEG chain (also: conjugated to 5 kDa linear PEG, site not given here; listed as Homo sapiens) | 92% |  |  | lower maximum absorbance turbidity value
